From publication PMC10876603 come the findings set out here.

In the experiment the target is microtubules (polymerised α/β-tubulin) (UniProt Q6B856).
Sequence of UniProt Q6B856 (Q6B856 whole entry, looked up): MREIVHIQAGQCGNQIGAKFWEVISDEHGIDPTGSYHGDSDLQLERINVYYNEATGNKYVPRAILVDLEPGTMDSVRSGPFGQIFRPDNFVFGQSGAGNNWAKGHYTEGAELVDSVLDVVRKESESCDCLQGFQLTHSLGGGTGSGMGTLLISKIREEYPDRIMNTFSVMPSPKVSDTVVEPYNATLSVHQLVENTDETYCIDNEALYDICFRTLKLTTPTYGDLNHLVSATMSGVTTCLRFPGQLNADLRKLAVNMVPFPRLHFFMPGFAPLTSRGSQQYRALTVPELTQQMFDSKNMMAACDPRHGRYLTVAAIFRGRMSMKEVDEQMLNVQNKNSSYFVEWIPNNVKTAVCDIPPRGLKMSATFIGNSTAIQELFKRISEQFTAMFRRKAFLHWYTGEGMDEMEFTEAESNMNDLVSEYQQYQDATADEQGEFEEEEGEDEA

“human CEN subcomplex with Borealin R17E, R19E, K20E (CEN-Borealin^MTBM) (from UniProt Q9NQS7 1-58; O15392 1-142; Q53HL2 1-280)” yielded a width of bundles of GMpCpp-stabilized rhodamine-labeled MTs (100 nM) after 2 min with 4 μM CEN, TIRF microscopy (single GMpCpp MTs measure 0.34 μm) of 0.36 μm.
